Laboratory results as given in patent US10677782B2, “Methods of determining interferon having direct inhibitory effects on tumors and uses thereof” (SUPERLAB FAR EAST LIMITED, priority 2013, dated 2020).

Columns and labels:
[1] = test system: phosphorylation of STAT1 (Tyr701), STAT2 (Tyr690), STAT3 (Tyr705) in Hela cells; test: STAT phosphorylation by Western Blot; format: cell-based, human; conditions: 10 μg/ml; 0, 5, 15, 30, 60, 120 and 240 minutes
From the text: (§1) After treatment, the cells were collected, cellular proteins were extracted and loaded onto SDS-PAGE […] for Western Blot analysis to observe the phosphorylation of STAT1 (Tyr701), STAT2 (Tyr690), and STAT3(Tyr705). GAPDH was used as a loading control.
(§2) The primary antibodies used were: STAT1 (1:1000, Cat #: 9175S), Tyr701 phosphorylated-STAT1 (1:1000, Cat #: 9167S), STAT2 (1:500, Cat #4594), Tyr690 phosphorylated-STAT2 (1:1000, Cat #: 441S), STAT3 (1:1000, Cat #: 9132), Tyr705 phosphorylated-STAT3 (1:1000, Cat #: 9145S). Anti-mouse (Cat #: sc-2005) or rabbit (Cat #: sc-2004) or goat (Cat #: sc-2020) HRP-conjugated secondary antibodies (Santa Cruz Technology, Santa Cruz, Calif.) were used at concentrations of 1:2000. Blots were visualized by use of Luminescence/Fluorescence Imaging LAS4000 System (GE Healthcare Life Sciences, USA) with super signal west pico chemiluminescnet substrate kit (Thermo Scientific, USA).

[2] = test system: phosphorylation of STAT1 (Tyr701), STAT2 (Tyr690), STAT3 (Tyr705) in A549 cells; test: STAT phosphorylation by Western Blot; format: cell-based, human; conditions: 10 μg/ml; 0, 5, 15, 30, 60, 120 and 240 minutes
From the text: as §1, §2

[3] = Tolerability and body weight of tumor-bearing mice, Example 2; format: in vivo, BALB/cA nu/nu mice
Method: Animals were assigned to treatment groups randomly. Initially, all animals were placed in one large animal cage. For assignment to the study, they were later separately housed, with 6 animals per cage per treatment group. Groups 1 and 2 are Control groups in which the animals were each administered the vehicle every other day after the first treatment. […] The animals in Groups 4, 5 and 6 were each given rSIFN-co every other day after the first treatment at 0.15 mg/mouse (Group 4) or 0.10 mg/mouse (Group 5) or 0.05 mg/mouse (Group 6), respectively. Tumor growth was monitored by measuring the length and width of each tumor twice a week during the course of the study. Each animal was also weighed twice a week during the course of the study.
The study was conducted as in Example 1 except as specifically indicated otherwise. Human cervical cancer xenografts were first established and prepared in a similar manner as in Example 1, by inoculating 5×10^6 Hela cells subcutaneously in nude mice and passaging the well-grown xenografts twice in nude mice. Then 1.5 mm^3 fragments were prepared for s.c. implantation into the animals. The body weight of the animals averaged 19±2 g at dose initiation In contrast to Example 1, the animals used were all female.

[4] = Tolerability and body weight of tumor-bearing mice, Example 1; format: in vivo, BALB/cA nu/nu mice; conditions: 0.05-0.15 mg/mouse i.t. every other day, 21 days
From the text: The animals used were 4-6 weeks old male BALB/cA nu/nu mice, weighing about 23±2 g, obtained from the Shanghai Institute of Materia Medica (Shanghai, P.R. China). The study protocol was reviewed by the Committee on the Use and Care of Animals of Shanghai Institute of Materia Medica for compliance with regulations, and Committee approval was obtained prior to study initiation. Wherever possible, procedures used in this study were designed to avoid or minimize discomfort, distress, and pain to the animals. Animals that experience severe or chronic pain or distress that could not be relieved were painlessly euthanized, in accordance to regulations. Animals were housed 6 to a cage. They were ear-marked with ear hole punch identification. The room temperature was maintained at 25° C.±1° C. Lighting was set at 12 hr on and 12 hr off. Food was provided ad libitum. City tap water, filtered with a 5 micrometer (μm) filter, was provided to the animals ad libitum via water bottles.
Animals were assigned to treatment groups randomly. Initially, all animals were placed in one large animal cage. For assignment to the study, they were later separately housed, with 6 animals per cage per treatment group. […] Tumor growth was monitored by measuring the length and width of each tumor twice a week during the course of the study. […]

B1: rSIFN-co: Recombinant super-compound interferon; amino acid sequence SEQ ID NO: 1 (same as interferon alfacon-1), encoded by SEQ ID NO: 2, novel tertiary structure (protein)
chain: MCDLPQTHSLGNRRALILLAQMRRISPFSCLKDRHDFGFPQEEFDGNQFQKAQAISVLHEMIQQTFNLFSTKDSSAAWDESLLEKFYTELYQQLNDLEACVIQEVGVEETPLMNVDSILAVKKYFQRITLYLTEKKYSPCAWEVVRAEIMRSFSLSTNLQERLRRKE
modifications: Amino acid sequence of recombinant interferon
- phosphorylation patterns for STAT1, STAT2 and STAT3 [1]: behaved similarly in their phosphorylation patterns for STAT1, STAT2 and STAT3
- phosphorylation patterns for STAT1, STAT2 and STAT3 [2]: behaved similarly in their phosphorylation patterns for STAT1, STAT2 and STAT3
- tolerability: signs of toxicity ([3]; 0.05-0.15 mg/mouse i.t. every other day, 28 days): no signs of toxicity
- change in average body weight ([3]; 28-day treatment period): Very little change
- tolerability: signs of toxicity or weight loss [4]: no signs of toxicity or weight loss
